Assay results as given in patent US20180030144A1 (INNATE PHARMA, published 2018).

T1: mouse CD73 expressed on a recombinant host cell line (mouse, UniProt Q61503 29-551)
T1 construct: whole, on cells; also called moCD73
T1 sequence (looked up): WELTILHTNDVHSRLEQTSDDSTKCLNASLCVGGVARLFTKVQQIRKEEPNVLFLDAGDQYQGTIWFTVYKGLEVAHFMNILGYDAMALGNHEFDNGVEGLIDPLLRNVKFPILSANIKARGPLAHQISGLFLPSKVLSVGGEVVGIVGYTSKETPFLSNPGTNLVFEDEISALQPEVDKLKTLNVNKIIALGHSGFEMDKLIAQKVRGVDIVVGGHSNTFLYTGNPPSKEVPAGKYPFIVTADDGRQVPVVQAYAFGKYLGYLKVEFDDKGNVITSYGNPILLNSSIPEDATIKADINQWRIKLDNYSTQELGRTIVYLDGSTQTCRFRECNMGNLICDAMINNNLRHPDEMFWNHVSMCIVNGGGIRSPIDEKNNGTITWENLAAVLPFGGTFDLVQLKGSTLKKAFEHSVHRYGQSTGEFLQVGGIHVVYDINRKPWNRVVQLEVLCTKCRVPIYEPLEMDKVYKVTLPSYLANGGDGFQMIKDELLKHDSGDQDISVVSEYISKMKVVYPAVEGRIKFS

T2: human CD73 expressed at the cell surface (human, UniProt P21589 27-549)
T2 construct: GPI-anchored dimer on cells; also called huCD73; cellular CD73
T2 sequence: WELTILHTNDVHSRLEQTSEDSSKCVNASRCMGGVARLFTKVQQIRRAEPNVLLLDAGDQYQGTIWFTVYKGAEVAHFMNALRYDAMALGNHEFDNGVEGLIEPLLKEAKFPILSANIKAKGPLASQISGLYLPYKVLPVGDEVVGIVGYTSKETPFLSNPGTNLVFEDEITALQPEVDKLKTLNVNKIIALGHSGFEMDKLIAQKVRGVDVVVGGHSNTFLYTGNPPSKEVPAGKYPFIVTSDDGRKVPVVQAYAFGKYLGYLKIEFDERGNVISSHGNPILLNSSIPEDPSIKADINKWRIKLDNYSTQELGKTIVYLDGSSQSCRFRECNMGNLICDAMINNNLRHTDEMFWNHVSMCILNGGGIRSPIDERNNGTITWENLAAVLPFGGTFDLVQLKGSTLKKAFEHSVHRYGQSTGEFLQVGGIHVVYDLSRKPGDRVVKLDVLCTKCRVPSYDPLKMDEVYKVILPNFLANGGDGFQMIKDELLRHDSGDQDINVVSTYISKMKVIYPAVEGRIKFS


Columns and labels:
[1] = target: T1, mouse CD73 expressed on a recombinant …; assay: flow cytometry titration on a mouse-CD73-expressing recombinant host cell line, median of fluorescence
[2] = target: T2, human CD73 expressed at the cell surface; assay: flow cytometry on MDA-MB-231 cells, medium (no APCP)
Experimental: (§1) MDA-MB-231 cells are available from ATCC (reference HTB-26). 10⁵ cells resuspended in PBS/0.2% BSA/0.02% NaN3 (named “staining buffer”) are distributed into round bottom 96W-microplates. Dose-range of anti-CD73 antibodies was added to the plates and cells are incubated for 45 min at 4° C. Cells were washed three times in staining buffer by spinning plates at 400 g for 3 min at 4° C. PE-coupled goat anti-mouse or goat anti-human IgG Fc fragment secondary antibodies (Beckman Coulter) diluted in staining buffer were added to the cells and plates are incubated for 30 additional minutes at 4° C. Cells were washed three times as described above and analyzed on an Accury C6 flow cytometer equipped with an HTFC plate reader.
Cells were pre-incubated at 37° C. for 30 minutes in the presence or not of 200 μM adenosine 5′-(α,β-methylene)diphosphate (APCP), followed by addition of antibodies. APCP is an analog of ADP and binds irreversibly to the active site of CD73. When bound by APCP, CD73 changes conformation from an “open” conformation to a “closed” conformation. mAbs 11E1, 8C7, 3C12 and 6E1 bound MDA-MB-231 cells with good affinity both in the presence and absence of APCP. In the presence of APCP, the EC50 was similar to that observed in the absence of APCP. The plateau for maximal binding of 11E1, 8C7, 3C12 and 6E1 was higher in the absence of APCP than in the presence of APCP, while the inverse was true for AD2.

[3] = target: T2, human CD73 expressed at the cell surface; assay: cell-based or functional assay
[4] = target: T2, human CD73 expressed at the cell surface; assay: flow cytometry titration on a human-CD73-expressing recombinant host cell line, median of fluorescence
[5] = target: T2, human CD73 expressed at the cell surface; assay: flow cytometry titration on MDA-MB-231 cells (endogenous CD73), median of fluorescence
Experimental: as §1
Median of fluorescence vs. antibodies concentration was plotted on graphs and EC50 is calculated using Graph Pad Prism program.

binding result [1]	EC50 [2]	decrease of the enzymatic activity of cellular CD73 (MDA-MB-231 cells) [3]	EC50 (read off the curve) [4]	EC50 (read off the curve) [5]	Binder
no binding (tested: about 30-40 µg/ml)	0.0611 µg/mL	> 75%	~0.4 µg/mL	~0.1 µg/mL	antibody 11E1 (antibody, human IgG1, V domains shown, Produced as chimeric human IgG1 with heavy chain N297Q (Kabat EU numbering); also called 1E11) VH: EIQLQQSGPELVKPGASVKVSCKASGYAFTSYNMYWVKQSHGKSLEWIGYIDPYNGGTSYNQKFKGKATLTVDKSSSTAYMHLNSLTSEDSAVYYCARGYGNYKAWFAYWGQGTLVTVSA VL: DAVMTQTPKFLLVSAGDRVTITCKASQSVTNDVAWYQQKPGQSPKLLIYYASNRYTGVPDRFTGSGYGTDFTFTISTVQAEDLAVYFCQQDYSSLTFGAGTKLELK
no binding (tested: about 30 µg/ml)	0.0572 µg/mL	> 75%	~0.6 µg/mL	~0.07 µg/mL	antibody 3C12 (antibody, human IgG1, V domains shown, Produced as chimeric human IgG1 with heavy chain N297Q (Kabat EU numbering); RTVAAP)) VH: QIQLQQSGPELVKPGASVKVSCKASGYAFASYNMNWVKQSHGKSLDWIGYIDPYNGGSSYNLTFKGKATLTVDKSSTTAYMHLNSLTSEDSAVYYCARGYGNYKAWFAYWGQGTLVTVSA VL: DVVMTQTPKFLLVSAGDRVTITCKASQSVSNDVAWYQQKPGQSPKLLIYYASTRYTGVPDRFTGSGYGTDFTFTISTVQAEDLAVYFCQQDYSSLTFGAGTKLELKR
no binding (tested: about 30-40 µg/ml)	0.0584 µg/mL	> 75%	~0.4 µg/mL	~0.1 µg/mL	antibody 6E1 (antibody, human IgG1, V domains shown, Produced as chimeric human IgG1 with heavy chain N297Q (Kabat EU numbering)) VH: EFQLQQSGPELVKPGASVKVSCKASGYAFTSYNMYWVKQSHGKRLEWIGYIDPYNGGSSYNQKFKGKATLTVDKSSSTAYMHLNNLTSEDSAVYYCARGYNNYKAWFAYWGQGTLVTVSA VL: SIVMTQTPKFLLVSAGDRVTITCKASQSVTNDVAWYQQKPGQSPKLLIYYASNRYTGVPDRFTGSGYGTDFTFTISTMQAEDLAVYFCQQDYSSLTFGAGTKLELK
